The test system of assay [1] is G. leopoldii strain Gv_11. The assay can be described thus: Quantitative reduction in viable CFU assay in bacterial suspension. Type of assay: cell-based, Gardnerella leopoldii. The settings on record: 5 hours, pH 5.0, anaerobic, 10 ul endolysin (0.2 mg/ml where possible) + 90 ul 5e7 CFU/ml, average of triplicate. The procedure:
(§1) The lysis activity on the four main species of Gardnerella of 91 constructs (natural and domain-swapped endolysins) was quantitatively assessed using the method described in Reference Example 2. Briefly, 90 ul 5e7 CFU/ml of the indicated strain were incubated for 5 hours at pH 5.0 under anaerobic conditions with 10 ul endolysin (concentration adjusted to 0.2 mg/ml where possible, see Table 4).
(§2) The results are shown in FIGS. 8A to 8D together with Tables 5A to 5C. In FIGS. 8A to 8D, the logarithmic Y axis depicts the count of surviving cells. The dotted line indicates the limit of detection (LOD) given by plating of 2 ul of the reaction mix (500 CFU/ml). Each combination of the natural 10 H-domains and the natural 9 B-regions was assessed, including the natural endolysins (H1B1, H2B2, H3B3, etc.), plus H6B6. […] The activity of each construct was measured on each of the 4 main Gardnerella species G. vaginalis sensu stricto, G. leopoldii, G. piotii, and G. swidsinkii. All conditions have been measured in triplicate. The survival after 5 hours incubation at pH 5.0 under anaerobic conditions with endolysins vs. buffer was measured by quantitative plating. The values indicate the log 10 of the ratio of surviving CFU for treated vs. untreated cells. The average of the triplicate measurements is used. In tables 5A and 5B, high negative log 10 values, e.g. −6.7, −5.5, −4.8 etc. are associated with high enzymatic activity, while log 10 values closer to zero or even positive log 10 values are associated with low or no enzymatic activity. […] Inversely, a reduction value of −3.7 means a 10^3.7-fold (=5012-fold) reduction of viable CFU in treated sample vs. untreated control.
(§3) Gardnerella cells were recovered from cryo stock by plating on Chocolate Agar plates (Beckton Dickinson) and incubating for 48 h at 37° C. under anaerobic conditions. For Lactobacilli, BD Schaedler/5% sheep blood agar plates were used instead. Colonies were scraped from the plate, resuspended in Hardy Broth or NYC-III-HS-5.0 at the pH as indicated, and the suspension adjusted to OD (610 or 620 nm as indicated) 0.1. It has to be noted that two Tecan Microplate readers, having respectively a 610 nm or 620 nm filter, have been used interchangeably in the experiments. Although it doesn't make any difference for the experiments, the exact wavelength used is specified in each example. If not stated otherwise, 90 μl cell suspension was mixed with 10 μl endolysin solution, for the different species/endolysin combinations, in 384-well plates. OD(610-620 nm as indicated) was measured at the beginning of the reaction and at the end, either as two measurement points or as a continuous kinetic in a Tecan F200 Microplate reader. The reactions were incubated for 5 hours (or otherwise the time indicated) at 37° C. under anaerobic, micro-aerophilic or aerobic conditions as indicated. Anaerobic conditions intend that oxygen was fully depleted from the container in which the bacteria are incubated (Sigma-Aldrich anaerobic jar or sealable lunch box) with an anaerobic sachet, and the lack of oxygen was confirmed with an anaerobic indicator inside the container. Where micro-aerophilic conditions are indicated, the candle-in-a-jar method was used (tea candle lit in an appropriate sealable container, which reduces oxygen levels until the flame dies out). Then each well was diluted in 5 steps (10^−1 to 10^−5) using 96-U-well bottom plates, and 2 μl of each dilution of each reaction mix are plated on BD Chocolate agar plates or BD Schaedler/5% sheep blood agar plates for Gardnerella and Lactobacilli, respectively, for detecting and quantifying surviving CFU. Detection plates were incubated at 37° C. for 48 hours under anaerobic conditions.

Assay [2] concerns four Gardnerella strains (Gv_9, Gv_11, Gv_17, Gv_23). Briefly: CFU reduction averaged across the four Gardnerella strains, with activity ranks. It is filed as cell-based. The settings on record: for average of the log 10 activities of each construct across the four Gardnerella strains: pH 5.0, 5 hours, anaerobic; for activity rank of all endolysins: rank 1-91, based on the data of Table 5B. The procedure: as §1, §2
as §3, with “out).” for “out). Then each well was diluted in 5 steps (10^−1 to 10^−5) using 96-U-well bottom plates, and 2 μl of each dilution of each reaction mix are plated on BD Chocolate agar plates or BD Schaedler/5% sheep blood agar plates for Gardnerella and Lactobacilli, respectively, for detecting and quantifying surviving CFU. Detection plates were incubated at 37° C. for 48 hours under anaerobic conditions.”

The subject of another assay is G. piotii strain Gv_17. Briefly: Quantitative reduction in viable CFU assay in bacterial suspension. Type of assay: cell-based, Gardnerella piotii. As to conditions: 5 hours, pH 5.0, anaerobic, 10 ul endolysin (0.2 mg/ml where possible) + 90 ul 5e7 CFU/ml, average of triplicate. As for the experimental part: as §1, §2, §3
Assay [3] has as its system G. vaginalis sensu stricto strain Gv_9. The assay is described as above. It is filed as cell-based, Gardnerella vaginalis sensu stricto. The settings on record: Gv_9; 5 hours, pH 5.0, anaerobic; 10 ul endolysin (0.2 mg/ml where possible) + 90 ul 5e7 CFU/ml; average of triplicate. As for the experimental part:
The lysis activity on the four main species of Gardnerella of 91 constructs (natural and domain-swapped endolysins) was quantitatively assessed using the method described in Reference Example 2. […]
as §2, §3

The subject of assay [4] is G. swidsinskii strain Gv_23. Described as above. The settings on record: 5 hours, pH 5.0, anaerobic, 10 ul endolysin (0.2 mg/ml where possible) + 90 ul 5e7 CFU/ml, average of triplicate. It is filed as cell-based, Gardnerella swidsinskii. As for the experimental part: as §1, §2, §3

B1: H7B7: natural Gardnerella prophage endolysin from strain AMD (protein)
chain: MSKKGIDVSEWQGDIDFNAVKASGVEFVIIRAGYGIGCKDKWFEQNYRKAKTAGLDVGAYWYSYANSASEAAEEAQSCANMLSGKSFEYPVYFDLEEKSQLNRGRAFCDSLITSFCSKLETYGYYAGFYTSLSTANNLVSSHVRNRYALWIAQWNTHCSYQGSYGLWQYSSSGSVPGVAGRVDMDYAYKDYPSIIKNAGLNGCKNGGSDQAARTSSIDEVAREVINGAWGNGNERKQRLTQAGYDYTSVQNKVNKLLGVKACRKSVDELAREVIRGTWGNGNERKNRLTQAGYDYDTVQKRVNELL
modifications: EL7_strain_AMD
notes: natural Gardnerella prophage endolysin from strain AMD
For B1, the “log 10 of the ratio of surviving CFU for treated vs. untreated cells” value (shortened to “log 10 of the ratio of surviving CFU”) in assay [1] is given as −2.1 log 10; in the assay on G. piotii strain Gv_17 it was −1.2 log 10; in assay [3], −1.6 log 10; in assay [4], −3.2 log 10. In assay [2], the “average of the log 10 activities of each construct across the four Gardnerella strains” value is listed as −2.0 log 10. The “activity rank of all endolysins” value in assay [2] was 40.

B2: H10B10: natural Gardnerella prophage endolysin from strain G30-4 (protein)
chain: MSKRGIDVSVWQGDIDFNAVKASGVEFVIIRAGYGIGHKDKWFEENYRKAKTVGLDVGAYWYSYASSAGEASEEAQSCVNILSGKSFEYPVYFDLEEKSQLNRGRDFCDSLITSFCNKLEACGYYAGFYTSLSVANNLVSSHVRDRYALWIAQWNTHCSYQGSYGLWQYSSSGSVNGIAGRVDMDYAYVDYPSVIKNAGLNGYKNGGSYTAPQISSIDEVAREVINGDWGNGNERKQRLTSAGYDYASVQNKVNELLGVKAYRKSVDELAREVIRGTWGNGSTRKQRLTQAGYDYNAVQKRVNELL
modifications: EL10_strain_G30-4
Regarding B2, the “log 10 of the ratio of surviving CFU” value is recorded as −1.6 log 10 in assay [1], −2.4 log 10 in the assay on G. piotii strain Gv_17, −3.5 log 10 in assay [3] and −5.5 log 10 in assay [4]. For the same molecule, the “average of the log 10 activities of each construct across the four Gardnerella strains” value in assay [2] was −3.3 log 10. In addition, in assay [2], the “activity rank of all endolysins” value is reported as 6.

B3: H12B12: natural Gardnerella prophage endolysin from strain 3549624 (protein)
chain: MSKKGIDVSVWQGDIDFNAVKASGVEFVIIRAGYGIGHKDKWFEENYRKAKTAGLDVGSYWYSYASSAGEVALEAQSCVNILSGKSFEYPVYFDLEEKSQLNRGRDFCDSLITSFCNKLEACGYYAGFYTSLSVANNLVSSHVRDRYALWIAQWNTHCSYQGSYGLWQYSSSGSVNGIAGRVDMDYAYVDYPSVIKNAGLNGYQNGGSYTAPQTSSIDEVAREVINGDWGNGIERKNRLTSAGYDYTSVQNKVNELLGVKAYRKSVDELAREVIRGTWGNGKTRKQRLTQAGYDYNAVQKRVNELL
modifications: EL12_strain_3549624_non-prophage
Consider B3, for which the “log 10 of the ratio of surviving CFU” value in assay [1] is listed as −1.0 log 10; in the assay with G. piotii strain Gv_17, −0.3 log 10; in assay [3], −0.2 log 10; in assay [4], −1.9 log 10. Besides, in assay [2], the “average of the log 10 activities of each construct across the four Gardnerella strains” value is −0.9 log 10. Besides, the “activity rank of all endolysins” value in assay [2] was 73.

B4: H11B11: natural Gardnerella prophage endolysin from strain JCP8017A (protein)
chain: MSKRGIDVSVWQGDIDFNAVKASGVEFVIIRAGYGIGHKDKWFEQNYRKAKTTGLDVGAYWYSYASSAGEAAEEAQSCVNILSGKSFEYPVYFDLEEKSQLNRGRDFCDSLITSFCNKLETYGYYAGFYTSLSVANNLVSSHVRDRYALWIAQWNTHCDYQGSYGLWQYSSSGSVDGIAGRVDMDYTYVDYPSVIKKAGLNGYKNGGSYTAPQTSSIDEVAREVINGDWGNGNERKNRLTSAGYDYTSVQNKVNELLGVKAYRKSVDELAREVIRGTWGNGSTRKQRLTQAGYDYDAVQKRVNELL
modifications: EL11_strain_JCP8017A
notes: natural Gardnerella prophage endolysin from strain JCP8017A
Take B4: the “log 10 of the ratio of surviving CFU” value is −1.6 log 10 in assay [1], −1.0 log 10 in the assay with G. piotii strain Gv_17, 0.1 log 10 in assay [3] and −3.5 log 10 in assay [4]. For the same molecule, the “average of the log 10 activities of each construct across the four Gardnerella strains” value in assay [2] is on record as −1.5 log 10. Further, the “activity rank of all endolysins” value in assay [2] is given as 57.

Source of the values: US20220315908A1, “NOVEL GARDNERELLA ENDOLYSINS AND USES THEREOF” (priority 2019, published 2022).
